The target in assay [1] is chimeric receptor consisting of the extracellular domain of mouse VEGFR-3 and the cytoplasmic domain of erythropoietin receptor, on Ba/F3 cells (mouse) (UniProt P35917). In words: cell-based or functional assay.
The target in assay [2] is chimeric receptor consisting of the extracellular domain of mouse VEGFR-2 and the cytoplasmic domain of erythropoietin receptor, on Ba/F3 cells (mouse) (UniProt P35918). As to the kind of experiment: cell-based or functional assay.
Sequence of UniProt P35918 (P35918 20-762, change not shown): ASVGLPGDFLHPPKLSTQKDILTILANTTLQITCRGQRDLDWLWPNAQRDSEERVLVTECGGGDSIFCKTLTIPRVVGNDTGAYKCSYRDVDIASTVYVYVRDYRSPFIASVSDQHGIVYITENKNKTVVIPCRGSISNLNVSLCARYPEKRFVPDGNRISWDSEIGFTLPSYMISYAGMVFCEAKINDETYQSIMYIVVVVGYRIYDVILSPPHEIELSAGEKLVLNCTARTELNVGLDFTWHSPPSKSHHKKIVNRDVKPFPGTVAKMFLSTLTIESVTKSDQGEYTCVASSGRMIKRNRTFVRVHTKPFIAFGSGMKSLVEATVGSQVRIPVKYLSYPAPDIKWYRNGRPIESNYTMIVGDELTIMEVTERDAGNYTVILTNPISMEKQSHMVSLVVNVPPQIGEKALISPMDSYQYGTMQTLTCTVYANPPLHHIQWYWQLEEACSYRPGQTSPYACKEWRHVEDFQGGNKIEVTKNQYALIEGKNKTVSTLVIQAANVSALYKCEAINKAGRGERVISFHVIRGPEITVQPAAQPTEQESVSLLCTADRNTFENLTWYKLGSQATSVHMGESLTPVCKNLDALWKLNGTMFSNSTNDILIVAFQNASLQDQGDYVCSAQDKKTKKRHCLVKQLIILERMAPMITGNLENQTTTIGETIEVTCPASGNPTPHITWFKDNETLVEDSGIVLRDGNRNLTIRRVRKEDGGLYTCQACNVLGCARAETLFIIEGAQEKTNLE

Sequence of UniProt P35917 (P35917 25-775, change not shown): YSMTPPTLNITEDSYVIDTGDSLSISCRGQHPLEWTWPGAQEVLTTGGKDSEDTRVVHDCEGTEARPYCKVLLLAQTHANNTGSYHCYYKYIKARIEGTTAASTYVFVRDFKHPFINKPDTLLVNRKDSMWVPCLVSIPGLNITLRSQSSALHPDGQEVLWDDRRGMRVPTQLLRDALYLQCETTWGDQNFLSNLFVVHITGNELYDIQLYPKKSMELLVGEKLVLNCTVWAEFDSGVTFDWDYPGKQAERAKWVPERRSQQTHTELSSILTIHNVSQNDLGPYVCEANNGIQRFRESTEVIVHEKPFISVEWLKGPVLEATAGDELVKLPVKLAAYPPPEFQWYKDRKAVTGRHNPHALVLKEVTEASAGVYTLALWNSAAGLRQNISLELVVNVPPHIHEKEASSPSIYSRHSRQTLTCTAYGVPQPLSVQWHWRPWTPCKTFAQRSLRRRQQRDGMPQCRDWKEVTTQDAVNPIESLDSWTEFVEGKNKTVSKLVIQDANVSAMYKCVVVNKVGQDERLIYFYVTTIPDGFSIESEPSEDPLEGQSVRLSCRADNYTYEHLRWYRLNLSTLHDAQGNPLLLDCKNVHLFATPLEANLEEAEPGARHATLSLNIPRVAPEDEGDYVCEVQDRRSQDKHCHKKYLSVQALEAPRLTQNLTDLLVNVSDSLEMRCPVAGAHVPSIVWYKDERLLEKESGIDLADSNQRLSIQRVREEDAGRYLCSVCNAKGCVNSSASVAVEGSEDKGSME

“recombinant VEGF-CΔNΔC (from UniProt P49767 103-215) (ligand)” yielded a concentration producing near-maximal survival of Ba/F3 VEGFR-3-EpoR cells without IL-3 in assay [1] of 3 ng/mL. The substance further came in with a concentration producing near-maximal survival of Ba/F3-NYK-EpoR cells without IL-3 in assay [2] of 50 ng/mL.

For “recombinant VEGF-DΔNΔC (from UniProt O43915 93-201) (ligand)”, the concentration producing near-maximal survival of Ba/F3 VEGFR-3-EpoR cells without IL-3 in assay [1] is 500 ng/mL. This substance also had a concentration producing near-maximal survival of Ba/F3-NYK-EpoR cells without IL-3 in assay [2] of 500 ng/mL.
